Consider 1 molecule from article doi:10.1101/2021.02.03.429618 (bioRxiv, 2021).

The target of this experiment is T1, human 2-oxoglutarate dehydrogenase (hE1o) (human, UniProt Q02218 41-1023).
T1 sequence (looked up): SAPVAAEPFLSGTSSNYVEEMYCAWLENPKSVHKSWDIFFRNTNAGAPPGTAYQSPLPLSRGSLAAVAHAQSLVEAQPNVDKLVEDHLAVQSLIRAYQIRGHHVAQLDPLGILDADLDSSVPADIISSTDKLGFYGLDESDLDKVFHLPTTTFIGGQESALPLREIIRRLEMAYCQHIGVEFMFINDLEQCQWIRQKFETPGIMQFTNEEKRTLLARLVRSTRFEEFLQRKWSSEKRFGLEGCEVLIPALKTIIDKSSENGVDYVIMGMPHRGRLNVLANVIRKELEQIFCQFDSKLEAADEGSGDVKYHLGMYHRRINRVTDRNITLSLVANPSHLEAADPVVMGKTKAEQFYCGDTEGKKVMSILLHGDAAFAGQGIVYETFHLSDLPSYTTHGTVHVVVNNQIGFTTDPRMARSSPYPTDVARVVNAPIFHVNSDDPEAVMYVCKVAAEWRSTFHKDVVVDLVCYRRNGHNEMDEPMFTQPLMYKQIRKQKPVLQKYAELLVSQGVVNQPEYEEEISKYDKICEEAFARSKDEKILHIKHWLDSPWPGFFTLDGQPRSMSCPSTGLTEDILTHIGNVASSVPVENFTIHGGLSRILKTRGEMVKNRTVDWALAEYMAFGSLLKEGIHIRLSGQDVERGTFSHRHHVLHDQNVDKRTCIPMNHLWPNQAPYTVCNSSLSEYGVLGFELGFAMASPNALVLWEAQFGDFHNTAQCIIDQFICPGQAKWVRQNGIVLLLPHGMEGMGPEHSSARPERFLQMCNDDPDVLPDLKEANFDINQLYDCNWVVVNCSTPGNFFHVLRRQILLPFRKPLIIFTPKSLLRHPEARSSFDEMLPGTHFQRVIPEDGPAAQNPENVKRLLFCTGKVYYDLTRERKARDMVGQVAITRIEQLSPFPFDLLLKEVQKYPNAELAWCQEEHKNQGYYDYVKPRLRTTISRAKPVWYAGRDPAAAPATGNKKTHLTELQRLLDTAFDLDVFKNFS
In words: cross-linking.

B1: human dihydrolipoyl succinyltransferase (hE2o) (enzyme, UniProt P36957 68-453, looked up)
chain: DDLVTVKTPAFAESVTEGDVRWEKAVGDTVAEDEVVCEIETDKTSVQVPSPANGVIEALLVPDGGKVEGGTPLFTLRKTGAAPAKAKPAEAPAAAAPKAEPTAAAVPPPAAPIPTQMPPVPSPSQPPSGKPVSAVKPTVAPPLAEPGAGKGLRSEHREKMNRMRQRIAQRLKEAQNTCAMLTTFNEIDMSNIQEMRARHKEAFLKKHNLKLGFMSAFVKASAFALQEQPVVNAVIDDTTKEVVYRDYIDISVAVATPRGLVVPVIRNVEAMNFADIERTITELGEKARKNELAIEDMDGGTFTISNGGVFGSLFGTPIINPPQSAILGMHGIFDRPVAIGGKVEVRPMMYVALTYDHRLIDGREAVTFLRKIKAAVEDPRVLLLDL
For the molecule B1, the binding result is listed as “binds”.
